{"source": "patent US20150259419A1", "about": "(PROTHENA BIOSCIENCES, published 2015)", "binders": {"B1": {"name": "mouse anti-human MCAM monoclonal antibody clone 1174.1.3 (antibody, V domains shown)", "VH": "QIQLVQSGPELKKPGETVKISCKASGYTFTNYGMNWVKQAPGKGLKWMGWINTYTGEPTYADDFKGRFALSLETSASTAYLQINNLKNEDMATYFCARYRYNKYERAMDYWGQGTSVTVSS", "VL": "DIVLTQSPASLAVSLGQRATISCRASKSVSTSGYSYMYWYQQKPGQPPKLLIYLASNLESGVPARFSGSGSGTDFTLNIHPVEEEDAATYYCQHSRELPFTFGSGTKLEIK", "notes": "Mouse hybridoma antibody"}, "B2": {"name": "mouse anti-human MCAM monoclonal antibody clone 1414.1.2 (antibody, V domains shown)", "VH": "EIQLQQTGPELVKPGASVKISCKASGYSFTDYIMLWVKQSHGKSLEWIGNINPYSGSSGYNLKFKGKATLTVDKSSSTAYMQLNSLTSEDSAVYYCARGKDFAMDYWGQGTSVTVSS", "VL": "DIVMSQSPSSLAVSAGEKVTMSCKSSQSLLNSSTRKNFLAWYQQKPGQSPKLLIYWASTRESGVPDRFTGSGSGTDFTLTISSVQAEDLAVYYCKQSYNRYTFGGGTKLEIK", "notes": "Mouse hybridoma antibody"}, "B3": {"name": "mouse anti-human MCAM monoclonal antibody clone 1749.1.3 (antibody, V domains shown)", "VH": "DVKLVESGGDLVKPGGSLKLSCAASGFTFSSYIMSWVRQTPEKRLEWVATISSGGSSTYYPDSVKGRFTISRDNAKNTLYLQMSSLKSEDTAMYYCTRDDDYDVKVFAYWGQGTLVTVSA", "VL": "B2 VL with S22N, Q27R, S33R, T34I, F38Y, R100L, Y101L, G105A, I111L", "notes": "Mouse hybridoma antibody"}, "B4": {"name": "mouse anti-human MCAM monoclonal antibody clone 1415.1.1 (antibody, V domains shown)", "VH": "QVQLQQPGAELVQPGAPVKLSCKASGYIFTSYWMNWVKQRPGRGLEWIGRIDPSDSKIHYNQKFKDKATLTVDRSSSTAYIQLGSLTSEDSAVYYCAKEGGLRRGDYAMDYWGQGTSVTVSS", "VL": "DIVMTQSPATLSVTPGDRVSLSCRASQSISDYLHWYQQKSHESPRLLIKYASQSISGIPSRFSGSGSGSDFTLSINSVEPEDVGVYYCQNGHNFPRTFGGGTKLEIK", "notes": "Mouse hybridoma antibody"}, "B5": {"name": "human MCAM, full length, expressed on transfected cells (receptor)", "chain": "VPGEAEQPAPELVEVEVGSTALLKCGLSQSQGNLSHVDWFSVHKEKRTLIFRVRQGQGQSEPGEYEQRLSLQDRGATLALTQVTPQDERIFLCQGKRPRSQEYRIQLRVYKAPEEPNIQVNPLGIPVNSKEPEEVATCVGRNGYPIPQVIWYKNGRPLKEEKNRVHIQSSQTVESSGLYTLQSILKAQLVKEDKDAQFYCELNYRLPSGNHMKESREVTVPVFYPTEKVWLEVEPVGMLKEGDRVEIRCLADGNPPPHFSISKQNPSTREAEEETTNDNGVLVLEPARKEHSGRYECQAWNLDTMISLLSEPQELLVNYVSDVRVSPAAPERQEGSSLTLTCEAESSQDLEFQWLREETDQVLERGPVLQLHDLKREAGGGYRCVASVPSIPGLNRTQLVKLAIFGPPWMAFKERKVWVKENMVLNLSCEASGHPRPTISWNVNGTASEQDQDPQRVLSTLNVLVTPELLETGVECTASNDLGKNTSILFLELVNLTTLTPDSNTTTGLSTSTASPHTRANSTSTERKLPEPESRGVVIVAVIVCILVLAVLGAVLYFLYKKGKLPCRRSGKQEITLPPSRKTELVVEVKSDKLPEEMGLLQGSSGDKRAPGDQGEKYIDLRH", "notes": "CHO cells transfected with the full length human MCAM gene; also called hMCAM; CD146"}}, "key": {"[1]": {"target": "T1, full length MCAMhFc protein (extracellular domain of human MCAM fused to human IgG) (human, UniProt P43121 24-559)", "T1 construct": "also called hMCAM-Fc; Human MCAM-Fc protein; not shown: human IgG (Fc) portion", "T1 chain": "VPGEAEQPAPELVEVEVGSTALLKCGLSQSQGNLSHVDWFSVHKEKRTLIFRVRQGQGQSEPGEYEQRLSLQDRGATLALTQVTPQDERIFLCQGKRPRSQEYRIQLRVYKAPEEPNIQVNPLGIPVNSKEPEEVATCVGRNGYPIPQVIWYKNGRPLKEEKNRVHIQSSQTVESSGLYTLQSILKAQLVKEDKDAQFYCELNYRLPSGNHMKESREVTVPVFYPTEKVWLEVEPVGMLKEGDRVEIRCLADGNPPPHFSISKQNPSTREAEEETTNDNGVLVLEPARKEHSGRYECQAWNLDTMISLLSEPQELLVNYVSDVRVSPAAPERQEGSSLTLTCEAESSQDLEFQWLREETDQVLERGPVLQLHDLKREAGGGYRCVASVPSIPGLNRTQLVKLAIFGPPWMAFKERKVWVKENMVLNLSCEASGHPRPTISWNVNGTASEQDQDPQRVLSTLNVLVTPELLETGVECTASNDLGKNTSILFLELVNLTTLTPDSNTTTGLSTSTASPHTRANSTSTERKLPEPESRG", "experiment": "summary of Examples 2 and 3"}, "[2]": {"target": "T2, human MCAM domain 1 (MCAMhFc domain construct) (human, UniProt P43121 19-129)", "T2 construct": "also called amino acids 19-129; not shown: human Fc portion (captured on anti-human IgG Fc biosensors)", "T2 sequence": "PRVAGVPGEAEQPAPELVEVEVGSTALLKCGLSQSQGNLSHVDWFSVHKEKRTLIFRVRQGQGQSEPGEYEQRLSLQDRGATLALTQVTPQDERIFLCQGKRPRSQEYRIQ", "experiment": "ForteBio Octet Red, MCAMhFc domains on anti-human IgG Fc biosensors", "text": "(§1) The following protocol was used: ForteBio anti-human IgG Fc biosensors were used to immobilize various MCAMhFc domains including full length MCAMhFc protein on to biosensor surface. […] After loading these samples into a black 96 well plate, the Octet Red was programmed as follows: 60 seconds for baseline #1; 180 seconds for loading various domains; 60 seconds for baseline #2; 180 seconds for association of antibody to domain; and 240 seconds for dissociation of antibody from domain.\n(§2) 1. MCAMhFc final concentration@5 ug/ml [0374] […] 3. ForteBio anti-human IgG Fc Capture (AHC) biosensors for kinetics experiments, cat #18-5060 [0376] 4. Block 96 well plate from Greiner Bio-one, cat #655209 [0377] 5. ForteBio Octet Red machine [0378] 6. Fresh tissue culture medium, DMEM with 20% FCS, was used as buffer for dilution"}, "[3]": {"target": "T3, human MCAM domain 2 (MCAMhFc domain construct) (human, UniProt P43121 139-242)", "T3 construct": "not shown: human Fc portion", "T3 sequence": "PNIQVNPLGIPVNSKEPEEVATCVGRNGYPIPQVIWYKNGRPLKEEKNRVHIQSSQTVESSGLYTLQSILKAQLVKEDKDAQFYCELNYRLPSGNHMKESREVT", "experiment": "ForteBio Octet Red, MCAMhFc domains on anti-human IgG Fc biosensors", "text": "as §1, §2"}, "[4]": {"target": "T4, combination of human MCAM domains 1 and 2 (MCAMhFc domain construct) (human, UniProt P43121 19-242)", "T4 construct": "not shown: human Fc portion", "T4 sequence": "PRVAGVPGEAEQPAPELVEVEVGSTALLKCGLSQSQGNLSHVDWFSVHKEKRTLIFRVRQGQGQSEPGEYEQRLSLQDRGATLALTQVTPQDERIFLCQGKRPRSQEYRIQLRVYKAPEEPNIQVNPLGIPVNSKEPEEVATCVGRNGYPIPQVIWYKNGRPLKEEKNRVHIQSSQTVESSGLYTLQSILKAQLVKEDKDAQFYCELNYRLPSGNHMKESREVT", "experiment": "ForteBio Octet Red, MCAMhFc domains on anti-human IgG Fc biosensors", "text": "as §1, §2"}, "[5]": {"target": "T5, human MCAM domain 3 (MCAMhFc domain construct) (human, UniProt P43121 244-321)", "T5 construct": "also called amino acids 244-321; not shown: human Fc portion", "T5 sequence": "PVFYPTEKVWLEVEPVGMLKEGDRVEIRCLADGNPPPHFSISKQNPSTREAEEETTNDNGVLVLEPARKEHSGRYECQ", "experiment": "ForteBio Octet Red, MCAMhFc domains on anti-human IgG Fc biosensors, antibody at 5 ug/ml", "text": "as §1, §2"}, "[6]": {"target": "B5", "experiment": "blocking of laminin 411 (20 ug/ml) binding to CHO cells expressing human MCAM, flow cytometry", "experimental": "The 87 independent mouse fusion clones and 26 independent rat fusion clones described in Example 1 above as being capable of (i) binding to human MCAM, and (ii) blocking the interaction between human MCAM and the α-4 chain of laminin were further characterized as follows. First, IC50 quantitation for the ability of the monoclonal antibody to block the binding of human MCAM to the α-4 chain of laminin was determined as follows. CHO cells expressing human MCAM were incubated with an anti-human MCAM antibody (at various concentrations) for 30 minutes at 4 degrees Celsius. […] Unbound laminin was then washed away, and the laminin bound to the surface of the cells was detected with fluorescently labeled anti-laminin antibodies. After washing, the amount of laminin bound to the surface was detected by flow cytometry, and IC50s were calculated based on the mean fluorescent intensity.\nAmino acid and nucleic acid sequences of the heavy and light chains of these antibodies, and their hypervariable regions, are provided in SEQ ID NOs:29-92. […] As such, each of these specific monoclonal antibodies was very capable of binding to human MCAM and inhibiting the interaction of cell-expressed human MCAM with its α-4 laminin binding ligand."}, "recombinant laminin 511": {"target": "T6, recombinant laminin 511 (UniProt O15230 36-3695; P07942 22-1786; P11047 34-1609)", "T6 construct": "also called laminin 10 (α5β1γ1)", "experiment": "CHO cells transfected with human MCAM incubated with laminin, pan-laminin antibody, flow cytometry"}}, "note": "Substitutions are numbered along the chain they refer to.", "data": [{"binder": "B1", "values": [{"measurement": "binding result", "setting": "[1]", "result": "binds"}, {"measurement": "binding result", "setting": "[2]", "result": "no binding (tested: 5 ug/ml)"}, {"measurement": "binding result", "setting": "[3]", "result": "no binding (tested: 5 ug/ml)"}, {"measurement": "binding result", "setting": "[4]", "result": "no binding (tested: 5 ug/ml)"}, {"measurement": "binding result", "setting": "[5]", "result": "binds"}, {"measurement": "IC50", "setting": "[6]", "result": 0.469, "unit": "µg/mL"}]}, {"binder": "B2", "values": [{"measurement": "binding result", "setting": "[1]", "result": "binds"}, {"measurement": "binding result", "setting": "[2]", "result": "no binding (tested: 5 ug/ml)"}, {"measurement": "binding result", "setting": "[3]", "result": "no binding (tested: 5 ug/ml)"}, {"measurement": "binding result", "setting": "[4]", "result": "no binding (tested: 5 ug/ml)"}, {"measurement": "binding result", "setting": "[5]", "result": "binds"}, {"measurement": "IC50", "setting": "[6]", "result": 0.431, "unit": "µg/mL"}]}, {"binder": "B3", "values": [{"measurement": "binding result", "setting": "[1]", "result": "binds"}, {"measurement": "binding result", "setting": "[2]", "result": "no binding (tested: 5 ug/ml)"}, {"measurement": "binding result", "setting": "[3]", "result": "no binding (tested: 5 ug/ml)"}, {"measurement": "binding result", "setting": "[4]", "result": "no binding (tested: 5 ug/ml)"}, {"measurement": "binding result", "setting": "[5]", "result": "binds"}, {"measurement": "IC50", "setting": "[6]", "result": 0.545, "unit": "µg/mL"}]}, {"binder": "B4", "values": [{"measurement": "binding result", "setting": "[1]", "result": "binds"}, {"measurement": "binding result", "setting": "[2]", "result": "no binding (tested: 5 ug/ml)"}, {"measurement": "binding result", "setting": "[3]", "result": "no binding (tested: 5 ug/ml)"}, {"measurement": "binding result", "setting": "[4]", "result": "no binding (tested: 5 ug/ml)"}, {"measurement": "binding result", "setting": "[5]", "result": "binds"}, {"measurement": "IC50", "setting": "[6]", "result": 0.307, "unit": "µg/mL"}]}, {"binder": "B5", "values": [{"measurement": "binding result", "setting": "recombinant laminin 511", "result": "no binding (tested: 10 µg/ml)"}]}]}
